These results are taken from US20030096306A1.

The assay deals with GCN4 leucine zipper (aa 245-285) fused C-terminal to LexA (yeast). As to the kind of experiment: cell-based or functional assay.

In turn, “Gal4 AD-anti-GCN4 (H-R66K) scFv (from UniProt P04386 768-881)” showed a growth on -Trp/-Leu/-His plates with 3-AT (HIS3 reporter, two hybrid) of 20 mM 3-AT.
